According to publication PMC6544594, “Accelerated directed evolution of dye-decolorizing peroxidase using a bacterial extracellular protein secretion system (BENNY)” (Bioresources and Bioprocessing, 2019):
Numbering of substitutions follows the chain as printed. In names and notes the source's numbering stands.

Substrate: CCn1c(=NN=c2sc3cc(S(=O)(=O)O)ccc3n2CC)sc2cc(S(=O)(=O)O)ccc21
Assay: purified protein
Assay type: biochemical, Pleurotus ostreatus
Conditions: 50 μL of 1 mM H2O2 in 200 μL (0.25 mM), 0.1 M citric acid–0.2 M Na2HPO4 pH 3.4, ambient temperature

B1: DyP4 (dye-decolorizing peroxidase 4) (Pleurotus ostreatus PC15) (protein)
chain: MTTPAPPLDLNNIQGDILGGLPKRTETYFFFDVTNVDQFKANMAHFIPHIKTSAGIIKDREAIKEHKRQKKPGLVPMAAVNVSFSHLGLQKLGITDDLSDNAFTTGQRKDAEILGDPGSKNGDAFTPAWEAPFLKDIHGVIFVAGDCHGSVNKKLDEIKHIFGVGTSHASISEVTHVRGDVRPGDVHAHEHFGFLDGISNPAVEQFDQNPLPGQDPIRPGFILAKENGDSRAAARPDWAKDGSFLTFRYLFQMVPEFDDFLESNPIVLPGLSRKEGSELLGARIVGRWKSGAPIEITPLKDDPKLAADAQRNNKFDFGDSLVRGDQTKCPFAAHIRKTYPRNDLEGPPLKADIDNRRIIRRGIQFGPEVTSQEHHDKKTHHGRGLLFVCYSSSIDDGFHFIQESWANAPNFPVNAVTSAGPIPPLDGVVPGFDAIIGQKVGGGIRQISGTNPNDPTTNITLPDQDFVVPRGGEYFFSPSITALKTKFAIGVASPAPHSQAPISA
notes: DyP4 without OsmY fusion, pET-24a(+)-DyP4 (NdeI/EcoRI), codon-optimized, untagged, E. coli BL21 (DE3), ion-exchange and SEC purified; forward primer encodes MTTPAPPL
Km: 895 ± 65 µM
kcat: 3.86 ± 0.08 s⁻¹
kcat/Km: 4310 ± 410 M⁻¹ s⁻¹

B2: DyP4 (dye-decolorizing peroxidase 4) (Pleurotus ostreatus PC15; I56V/K109R/N227S/N312S) (protein)
chain: B1 chain with I56V, K109R, N227S, N312S
notes: as for B1
Km (variant 4D4): 390 ± 59 µM
kcat (variant 4D4): 4.52 ± 0.15 s⁻¹
kcat/Km (variant 4D4): 11600 ± 2140 M⁻¹ s⁻¹

B3: DyP4 (dye-decolorizing peroxidase 4) (Pleurotus ostreatus PC15; I56V/K109R/N312S) (protein)
chain: B1 chain with I56V, K109R, N312S
notes: as for B1
Km (variant 3F6): 427 ± 55 µM
kcat (variant 3F6): 5.02 ± 0.15 s⁻¹
kcat/Km (variant 3F6): 11800 ± 1860 M⁻¹ s⁻¹
